Measured values: article PMC2765501

Molecular target: C22-pT peptide (HIV-1 gp41 MPER residues 662-683 with a C-terminal GCN4-pT isoleucine-zipper motif) (HIV-1)
Test: AUC

Substance: C22-pT peptide (HIV-1 gp41 MPER residues 662-683 with a C-terminal GCN4-pT isoleucine-zipper motif)
- stoichiometry N: 3
